Data reported in PMC10997478.
Each block holds one substance with its values, some of them ahead of it.

Legend:
[1] = target: NEDD8-Fluor568CRL2FEM1C (human) (UniProt Q15843); test: other fluorescence titration
[2] = target: NEDD8-Fluor568CUL2-RBX1 (human) (UniProt Q15843); test: FRET or BRET; Fluor647UBE2R2C93K titrated into 25 or 50 nM NEDD8-Fluor568CUL2-RBX1 in solution; 30 mM Tris pH 7.5, 100 mM NaCl, BSA; excitation 575 nm; one-site binding fit
[3] = target: NEDD8-Fluor568CUL2-RBX1 (human) (UniProt Q15843); test: FRET or BRET; Fluor647UBE2R2C93K titrated into 25 or 50 nM NEDD8-Fluor568CUL2-RBX1 in solution; 30 mM Tris pH 7.5, final 50 mM NaCl, BSA; excitation 575 nm; one-site binding fit
[4] = target: neddylated ^Fluor568CRL2^FEM1C (human) (UniProt Q13617); test: other fluorescence titration; environmental perturbation of Alexa Fluor 568 on neddylated ^Fluor568CRL2^FEM1C (25 or 50 nM); unlabeled UBE2R2 titrated; reaction buffer at ionic strength of 50 mM; one-site model
[5] = target: NEDD8-Fluor568CRL2FEM1C (human) (UniProt Q15843); test: other fluorescence titration; environmental perturbation of the Fluor568 dye: unlabelled UBE2R2 titrated into 25 or 50 nM NEDD8-Fluor568CRL2FEM1C; 30 mM Tris pH 7.5, 100 mM NaCl, BSA; one-site binding fit
[6] = target: NEDD8-Fluor568CRL2FEM1C (human) (UniProt Q15843); test: other fluorescence titration; environmental perturbation of the Fluor568 dye: unlabelled UBE2R2 or UBE2R2C93K-ubiquitin titrated into 25 or 50 nM NEDD8-Fluor568CRL2FEM1C; 30 mM Tris pH 7.5, final 50 mM NaCl, BSA; one-site binding fit
FEM1C (human) = target: T1, FEM1C (human) (UniProt Q96JP0)
T1 sequence: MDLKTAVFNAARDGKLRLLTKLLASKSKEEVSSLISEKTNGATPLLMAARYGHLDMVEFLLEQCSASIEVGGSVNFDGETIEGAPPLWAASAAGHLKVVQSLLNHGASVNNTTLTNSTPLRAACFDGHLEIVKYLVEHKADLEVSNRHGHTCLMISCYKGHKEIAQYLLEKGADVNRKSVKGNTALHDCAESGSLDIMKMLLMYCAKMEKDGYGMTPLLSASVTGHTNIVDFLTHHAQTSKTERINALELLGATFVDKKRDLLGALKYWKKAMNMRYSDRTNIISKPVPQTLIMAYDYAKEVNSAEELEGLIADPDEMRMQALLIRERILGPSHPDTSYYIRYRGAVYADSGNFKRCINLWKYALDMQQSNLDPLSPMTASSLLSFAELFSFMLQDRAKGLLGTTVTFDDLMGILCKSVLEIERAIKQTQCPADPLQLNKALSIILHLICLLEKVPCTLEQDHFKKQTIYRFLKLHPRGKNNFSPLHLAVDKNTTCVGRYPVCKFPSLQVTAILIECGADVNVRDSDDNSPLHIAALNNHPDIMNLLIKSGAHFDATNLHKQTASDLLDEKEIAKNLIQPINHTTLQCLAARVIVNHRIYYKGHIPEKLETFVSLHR

[7] = target: NEDD8-Fluor568CRL2FEM1C (human) (UniProt Q15843)
[8] = target: neddylated Fluor568CRL2VHL (human) (UniProt Q15843)

UBE2D3, sequence (P61077 whole entry): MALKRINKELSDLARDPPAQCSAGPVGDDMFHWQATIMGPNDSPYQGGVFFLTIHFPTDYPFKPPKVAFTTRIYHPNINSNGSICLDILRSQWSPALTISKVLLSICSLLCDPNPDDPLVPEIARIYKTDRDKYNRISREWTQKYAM
ARIH1, sequence (Q9Y4X5 whole entry): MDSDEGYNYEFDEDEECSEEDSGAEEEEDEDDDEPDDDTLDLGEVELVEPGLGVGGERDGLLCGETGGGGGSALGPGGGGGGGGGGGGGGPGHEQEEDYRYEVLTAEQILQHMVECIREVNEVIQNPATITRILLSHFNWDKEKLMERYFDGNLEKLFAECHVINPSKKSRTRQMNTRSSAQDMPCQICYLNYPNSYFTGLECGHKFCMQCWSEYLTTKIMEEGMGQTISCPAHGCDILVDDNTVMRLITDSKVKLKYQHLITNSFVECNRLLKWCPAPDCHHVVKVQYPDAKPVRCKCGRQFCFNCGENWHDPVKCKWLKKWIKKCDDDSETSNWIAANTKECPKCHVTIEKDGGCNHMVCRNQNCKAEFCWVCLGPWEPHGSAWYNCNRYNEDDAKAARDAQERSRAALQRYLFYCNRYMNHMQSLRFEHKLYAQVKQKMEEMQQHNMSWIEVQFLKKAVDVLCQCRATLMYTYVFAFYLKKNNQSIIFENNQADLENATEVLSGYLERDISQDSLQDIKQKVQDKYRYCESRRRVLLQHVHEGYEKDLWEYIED
UBE2G1, sequence (P62253 whole entry): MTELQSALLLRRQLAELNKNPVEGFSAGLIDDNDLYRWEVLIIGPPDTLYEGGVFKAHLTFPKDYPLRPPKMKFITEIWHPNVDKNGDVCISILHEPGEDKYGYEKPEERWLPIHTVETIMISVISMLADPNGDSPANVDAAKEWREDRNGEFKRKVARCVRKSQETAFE

Substance: UBE2R2C93K-ubiquitin (from UniProt Q712K3 1-238; P0CG48 1-76) (complex)
Kd [1]: 50 nM

Substance: Fluor647UBE2R2C93K (from UniProt Q712K3 1-238) (enzyme)
Kd [2]: 1140 nM
Kd [3]: 276 nM

Substance: UBE2D3 (from UniProt P61077 1-147) (enzyme)
Table S1: Km of the UCE for the CRL complex; ubiquitin priming of Sil1 peptide, UBE2D3 (K0 ubiquitin) with unlabelled neddylated CRL2FEM1C, Michaelis-Menten fit [7]: 916 nM
Table S1: Km of the UCE for the CRL complex; ubiquitin priming of Hif1α peptide, UBE2D3 (K0 ubiquitin) with unlabelled neddylated CRL2VHL, Michaelis-Menten fit [8]: 6.24 µM

Next, values leading:

fold decrease of Kd against neddylated CUL2-RBX1 alone [4]: 7 fold
Substance: UBE2R2 (wild type, unlabeled) (from UniProt Q712K3 1-238) (enzyme)

Kd [5]: 156 nM
Kd [6]: 44 nM
Substance: UBE2R2 (wild-type, unlabeled) (from UniProt Q712K3 1-238) (enzyme)

catalytic efficiency of Sil1 peptide priming with neddylated CRL2^FEM1C, against wild type (FEM1C (human)): 300 fold
Substance: E88R UBE2R2 (from UniProt Q712K3 1-238) (enzyme)

Table S1: Km of the UCE for the CRL complex; ubiquitin priming of Sil1 peptide, ARIH1 (with UBE2L3, K0 ubiquitin) with unlabelled neddylated CRL2FEM1C, Michaelis-Menten fit [7]: 143 nM
Table S1: Km of the UCE for the CRL complex; ubiquitin priming of Hif1α peptide, ARIH1 (with UBE2L3, K0 ubiquitin) with unlabelled neddylated CRL2VHL, Michaelis-Menten fit [8]: 151 nM
Substance: ARIH1 (from UniProt Q9Y4X5 1-557) (enzyme)

Table S1: Km of the UCE for the CRL complex; ubiquitin priming of Sil1 peptide, UBE2G1 (K0 ubiquitin) with unlabelled neddylated CRL2FEM1C, Michaelis-Menten fit [7]: 1.14 µM
Substance: UBE2G1 (from UniProt P62253 1-170) (enzyme)
